Measurements taken from patent US20080138349A1 (MacroGenics, published 2008).
Changes are numbered by the printed parent chain. Names may count otherwise. Blank lines part the entries; values can stand above or below the binder they belong to.

Legend:
[1] = biological target: T1, FcγRIIB (UniProt P31994 43-217, limits assumed); assay: ELISA
T1 construct: also called CD32B
T1 sequence (looked up): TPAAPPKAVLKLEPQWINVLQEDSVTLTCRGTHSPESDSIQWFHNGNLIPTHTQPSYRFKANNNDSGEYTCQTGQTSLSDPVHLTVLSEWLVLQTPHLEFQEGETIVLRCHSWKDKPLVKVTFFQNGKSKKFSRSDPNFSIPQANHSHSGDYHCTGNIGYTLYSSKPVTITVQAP

[2] = biological target: T2, FcγRIIIA (UniProt P08637 17-208, limits assumed); assay: ELISA
T2 construct: also called CD16A
T2 sequence (P08637 17-208 limits assumed): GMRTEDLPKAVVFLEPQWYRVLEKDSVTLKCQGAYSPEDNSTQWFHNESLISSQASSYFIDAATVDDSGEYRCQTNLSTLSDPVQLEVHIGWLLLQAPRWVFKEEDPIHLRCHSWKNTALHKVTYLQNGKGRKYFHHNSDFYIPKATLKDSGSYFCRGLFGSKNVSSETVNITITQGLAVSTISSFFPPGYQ

[3] = biological target: T2, FcγRIIIA; assay: ELISA; remark: listed apart in the source
[4] = biological target: T3, FcγRIIB-Fc fusion protein, soluble dimeric: extracellular domain of FcγRIIB fused to the hinge-CH2-CH3 domain … (human, UniProt P31994 43-217, limits assumed); assay: BIAcore
T3 construct: extracellular domain; also called FcRIIB-Fc; FcR2B; not shown: human IgG2 hinge-CH2-CH3
T3 sequence (looked up): T1 sequence (looked up)

[5] = biological target: T4, soluble monomeric FcγRIIIA, the extracellular region of FcγRIIIA joined to the linker-AVITAG sequence (UniProt P08637 17-208, limits assumed); assay: BIAcore
T4 construct: extracellular domain; also called FcRIIIA; FcR3A
T4 sequence (P08637 17-208 limits assumed): as above

[6] = biological target: T2, FcγRIIIA; assay: ELISA; remark: listed apart in the source

B1: ch4-4-20 V348M, K334N, F275I, Y202M, K147T (antibody)
chain: ASTKGPSVFPLAPSSKSTSGGTAALGCLVTDYFPEPVTVSWNSGALTSGVHTFPAVLQSSGLYSLSSVVTVPSSSLGTQTYICNMNHKPSNTKVDKKVEPKSCDKTHTCPPCPAPELLGGPSVFLFPPKPKDTLMISRTPEVTCVVVDVSHEDPEVKINWYVDGVEVHNAKTKPREEQYNSTYRVVSVLTVLHQDWLNGKEYKCKVSNKALPAPIENTISKAKGQPREPQMYTLPPSRDELTKNQVSLTCLVKGFYPSDIAVEWESNGQPENNYKTTPPVLDSDGSFFLYSKLTVDKSRWQQGNVFSCSVMHEALHNHYTQKSLSLSPGK
ELISA binding increase vs wt [1]: 0.75 x | ELISA binding increase vs wt [2]: 0.5 x

B3: ch4-4-20 F243I, V379L, G420V (antibody)
chain 1: EVKLDETGGGLVQPGRPMKLSCVASGFTFSDYWMNWVRQSPEKGLEWVAQIRNKPYNYETYYSDSVKGRFTISRDDSKSSVYLQMNNLRVEDMGIYYCTGSYYGMDYWGQGTSVTVSSASTKGPSVFPLAPSSKSTSGGTAALGCLVKDYFPEPVTVSWNSGALTSGVHTFPAVLQSSGLYSLSSVVTVPSSSLGTQTYICNVNHKPSNTKVDKKVEPKSCDKTHTCPPCPAPELLGGPSVFLIPPKPKDTLMISRTPEVTCVVVDVSHEDPEVKFNWYVDGVEVHNAKTKPREEQYNSTYRVVSVLTVLHQDWLNGKEYKCKVSNKALPAPIEKTISKAKGQPREPQVYTLPPSRDELTKNQVSLTCLVKGFYPSDIALEWESNGQPENNYKTTPPVLDSDGSFFLYSKLTVDKSRWQQVNVFSCSVMHEALHNHYTQKSLSLSPGK
chain 2: DVVMTQTPLSLPVSLGDQASISCRSSQSLVHSNGNTYLRWYLQKPGQSPKVLIYKVSNRFSGVPDRFSGSGSGTDFTLKISRVEAEDLGVYFCSQSTHVPWTFGGGTKLEIKRTVAAPSVFIFPPSDEQLKSGTASVVCLLNNFYPREAKVQWKVDNALQSGNSQESVTEQDSKDSTYSLSSTLTLSKADYEKHKVYACEVTHQGLSSPVTKSFNRGEC
ELISA binding increase vs wt [1]: 3.5 x | Kd [4]: 93.4 nM | koff [4]: 0.101 s⁻¹

B5: ch4-4-20 K334E, T359N, T366S (antibody)
chain 1: B3 chain 1 with I244F, K335E, T360N, T367S, L380V, V421G
chain 2: B3 chain 2
ELISA IIIA binding vs wt [3]: 1.5 X | ELISA binding increase vs wt [2]: 1.5 x | Kd [4]: 72 nM | koff [4]: 0.11 s⁻¹ | Kd [5]: 55.2 nM | koff [5]: 0.128 s⁻¹

B8: ch4-4-20 K317N, F423-deleted (antibody)
chain: EPKSCDKTHTCPPCPAPELLGGPSVFLFPPKPKDTLMISRTPEVTCVVVDVSHEDPEVKFNWYVDGVEVHNAKTKPREEQYNSTYRVVSVLTVLHQDWLNGNEYKCKVSNKALPAPIEKTISKAKGQPREPQVYTLPPSREEMTKNQVSLTCLVKGFYPSDIAVEWESNGQPENNYKTTPPVLDSDGSFFLYSKLTVDKSRWQQGNVSCSVMHEALHNHYTQKSLSLSPGK
ELISA binding increase vs wt [1]: 7 x

B12: ch4-4-20 E293V, Q295E, A327T (antibody)
chain: EPKSCDKTHTCPPCPAPELLGGPSVFLFPPKPKDTLMISRTPEVTCVVVDVSHEDPEVKFNWYVDGVEVHNAKTKPRVEEYNSTYRVVSVLTVLHQDWLNGKEYKCKVSNKTLPAPIEKTISKAKGQPREPQVYTLPPSREEMTKNQVSLTCLVKGFYPSDIAVEWESNGQPENNYKTTPPVLDSDGSFFLYSKLTVDKSRWQQGNVFSCSVMHEALHNHYTQKSLSLSPGK
ELISA IIIA binding vs wt [3]: 1.4 X | ELISA binding increase vs wt [2]: 0.4 x | Kd [4]: 86 nM

B13: ch4-4-20 D221E, D270E, V308A, Q311H, P396L, G402D (antibody)
chain: B12 chain with D6E, D55E, V78E, E80Q, V93A, Q96H, T112A, P181L, G187D
ELISA binding increase vs wt [1]: 0.1 x | ELISA binding increase vs wt [2]: 3.6 x

Results, then the binder that gave them:

ELISA IIIA binding vs wt [3]: 2 X | ELISA binding increase vs wt [2]: 2 x | Kd [4]: 70 nM | koff [4]: 0.1 s⁻¹ | Kd [5]: 160 nM | koff [5]: 0.167 s⁻¹
B2: ch4-4-20 V379M (antibody)
chain 1: not shown
chain 2: B3 chain 2

ELISA IIIA binding vs wt [3]: 1.5 X | ELISA binding increase vs wt [1]: 14 x | ELISA binding increase vs wt [2]: 1.5 x | Kd [4]: 46 nM | koff [4]: 0.06 s⁻¹ | Kd [5]: 72 nM | koff [5]: 0.117 s⁻¹
B4: ch4-4-20 G316D, A378V, D399E (antibody)
chain 1: B3 chain 1 with I244F, G317D, A379V, L380V, D400E, V421G
chain 2: B3 chain 2

Kd [4]: 120 nM | koff [4]: 0.113 s⁻¹ | Kd [5]: 99.7 nM | koff [5]: 0.105 s⁻¹
B6: ch4-4-20 F243I, V379L (antibody)
chain 1: not shown
chain 2: B3 chain 2

ELISA IIIA binding vs wt [3]: 3 X | ELISA binding increase vs wt [2]: 3 x | Kd [4]: 66 nM | koff [4]: 0.065 s⁻¹ | Kd [5]: 62 nM | koff [5]: 0.108 s⁻¹
B7: ch4-4-20 P247L, N421K (antibody)
chain 1: not shown
chain 2: B3 chain 2

ELISA binding increase vs wt [1]: 4 x
B9: ch4-4-20 T215P, K274N, A287G, K334N, L365V, P396L (antibody)
chain: PEPKSCDKTHTCPPCPAPELLGGPSVFLFPPKPKDTLMISRTPEVTCVVVDVSHEDPEVNFNWYVDGVEVHNGKTKPREEQYNSTYRVVSVLTVLHQDWLNGKEYKCKVSNKALPAPIENTISKAKGQPREPQVYTLPPSRDELTKNQVSVTCLVKGFYPSDIAVEWESNGQPENNYKTTPLVLDSDGSFFLYSKLTVDKSRWQQGNVFSCSVMHEALHNHYTQKSLSLSPGK

ELISA IIIA binding vs wt [3]: 5 X | ELISA, OD [6]: 1 OD
B10: ch4-4-20 K288N, A330S, P396L (antibody)
chain: B12 chain with K73N, V78E, E80Q, T112A, A115S, P181L

ELISA IIIA binding vs wt [3]: 3.5 X | Kd [5]: 125 nM
B11: ch4-4-20 Y319F, P352L, P396L (antibody)
chain: B12 chain with V78E, E80Q, Y104F, T112A, P137L, P181L
